Tests used:
[1] = molecular target: T1, RbBP5 beta-propeller (1-340) wild type (mouse, UniProt Q8BX09 1-340); assay: fluorescence anisotropy; Anisotropy: 50 mM Tris pH 7.4, 150 mM NaCl, 0.5 mM DTT, 20 C; NMR conditions not in the material; settings: protein: recombinant; tags: 6xHis-SUMO removed by 3C protease; label: 6-FAM (3')
[2] = molecular target: T1, RbBP5 beta-propeller (1-340) wild type; assay: NMR 1H-15N HSQC titration; marginally stronger than 7N-RNA pool; Anisotropy: 50 mM Tris pH 7.4, 150 mM NaCl, 0.5 mM DTT, 20 C; NMR conditions not in the material; settings: protein: recombinant; tags: 6xHis-SUMO removed by 3C protease

T1 sequence (Q8BX09 1-340): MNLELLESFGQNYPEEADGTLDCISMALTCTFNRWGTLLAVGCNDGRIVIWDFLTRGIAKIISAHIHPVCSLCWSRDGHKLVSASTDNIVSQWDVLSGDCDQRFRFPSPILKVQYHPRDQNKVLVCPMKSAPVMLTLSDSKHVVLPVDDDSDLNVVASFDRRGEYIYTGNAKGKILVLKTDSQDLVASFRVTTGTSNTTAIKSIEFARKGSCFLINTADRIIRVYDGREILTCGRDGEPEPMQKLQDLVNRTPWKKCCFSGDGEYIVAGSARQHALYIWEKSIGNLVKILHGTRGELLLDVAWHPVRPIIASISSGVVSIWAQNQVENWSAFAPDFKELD

B1: 14-mer ssRNA-6FAM (ssRNA)
RNA: GCAUAGGUUCGAUC
**Q.** How did the Kd [1] turn out when B1 was run?
**A.** The Kd was 22.5 ± 3.2 µM.

B2: SIA optimized RNA 7-mer (ssRNA)
RNA: UAGGUUC
**Q.** Does B2 bind [2]?
**A.** Result: binds

Reference: paper PMC6283417, “The structure of the RbBP5 β-propeller domain reveals a surface with potential nucleic acid binding sites”
